From IntAct's records for PubMed 15457209

B1: Rab GTPase-binding effector protein 1 (Homo sapiens), Q15276 (parent)
chain: MAQPGPASQPDVSLQQRVAELEKINAEFLRAQQQLEQEFNQKRAKFKELYLAKEEDLKRQNAVLQAAQDDLGHLRTQLWEAQAEMENIKAIATVSENTKQEAIDEVKRQWREEVASLQAVMKETVRDYEHQFHLRLEQERTQWAQYRESAEREIADLRRRLSEGQEEENLENEMKKAQEDAEKLRSVVMPMEKEIAALKDKLTEAEDKIKELEASKVKELNHYLEAEKSCRTDLEMYVAVLNTQKSVLQEDAEKLRKELHEVCHLLEQERQQHNQLKHTWQKANDQFLESQRLLMRDMQRMEIVLTSEQLRQVEELKKKDQEDDEQQRLNKRKDHKKADVEEEIKIPVVCALTQEESSAQLSNEEEHLDSTRGSVHSLDAGLLLPSGDPFSKSDNDMFKDGLRRAQSTDSLGTSGSLQSKALGYNYKAKSAGNLDESDFGPLVGADSVSENFDTASLGSLQMPSGFMLTKDQERAIKAMTPEQEETASLLSSVTQGMESAYVSPSGYRLVSETEWNLLQKEVHNAGNKLGRRCDMCSNYEKQLQGIQIQEAETRDQVKKLQLMLRQANDQLEKTMKDKQELEDFIKQSSEDSSHQISALVLRAQASEILLEELQQGLSQAKRDVQEQMAVLMQSREQVSEELVRLQKDNDSLQGKHSLHVSLQQAEDFILPDTTEALRELVLKYREDIINVRTAADHVEEKLKAEILFLKEQIQAEQCLKENLEETLQLEIENCKEEIASISSLKAELERIKVEKGQLESTLREKSQQLESLQEIKISLEEQLKKETAAKATVEQLMFEEKNKAQRLQTELDVSEQVQRDFVKLSQTLQVQLERIRQADSLERIRAILNDTKLTDINQLPET
partner: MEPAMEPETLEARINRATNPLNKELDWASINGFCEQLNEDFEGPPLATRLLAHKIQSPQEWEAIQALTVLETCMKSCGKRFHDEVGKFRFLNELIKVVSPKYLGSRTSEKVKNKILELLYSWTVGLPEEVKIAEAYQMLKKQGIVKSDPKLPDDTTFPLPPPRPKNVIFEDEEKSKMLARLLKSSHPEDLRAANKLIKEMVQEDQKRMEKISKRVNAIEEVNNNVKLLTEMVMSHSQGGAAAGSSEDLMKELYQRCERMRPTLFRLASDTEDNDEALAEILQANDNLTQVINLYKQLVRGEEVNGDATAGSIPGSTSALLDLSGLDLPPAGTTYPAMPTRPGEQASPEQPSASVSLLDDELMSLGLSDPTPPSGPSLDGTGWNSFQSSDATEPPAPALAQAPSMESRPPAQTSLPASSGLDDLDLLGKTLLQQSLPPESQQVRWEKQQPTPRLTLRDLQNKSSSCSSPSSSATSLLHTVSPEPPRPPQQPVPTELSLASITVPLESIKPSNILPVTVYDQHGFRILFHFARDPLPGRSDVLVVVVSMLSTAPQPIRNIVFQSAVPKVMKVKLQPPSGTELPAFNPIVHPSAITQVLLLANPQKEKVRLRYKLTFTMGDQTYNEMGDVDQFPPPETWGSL

Variants of: B1
Details: with gga1_human GGA1, Q9UJY5

Effect of a mutation on the interaction, decreasing interaction:
N568R
Q561A
Q566R
Q566A
M563R
